# From publication PMC3418443
# Target: IL-1 receptors on the surface of HIG-82 synoviocytes (rabbit (endogenous in HIG-82))
# Experiment: flow cytometry on cells
# Sequence of IL-1β (P01584 117-269): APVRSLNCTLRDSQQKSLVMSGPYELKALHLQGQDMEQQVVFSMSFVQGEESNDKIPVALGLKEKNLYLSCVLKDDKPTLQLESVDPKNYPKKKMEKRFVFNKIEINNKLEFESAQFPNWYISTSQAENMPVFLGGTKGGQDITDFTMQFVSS
substance,measurement,value
IL-1β (from UniProt P01584 117-269) (ligand),% cells with bound IL-1Ra-particles after pre-block with IL-1β,2.8%
